Results as given in publication doi:10.1101/2022.07.21.500812 (bioRxiv, 2022).

Biological target: human GPC3 residues 32-483 (hGPC3^core) (human, UniProt P51654 32-483, N-linked glycans at N124 and N241)
Assay: SPR

human GPC3 residues 32-483 (hGPC3^core), sequence (P51654 32-483): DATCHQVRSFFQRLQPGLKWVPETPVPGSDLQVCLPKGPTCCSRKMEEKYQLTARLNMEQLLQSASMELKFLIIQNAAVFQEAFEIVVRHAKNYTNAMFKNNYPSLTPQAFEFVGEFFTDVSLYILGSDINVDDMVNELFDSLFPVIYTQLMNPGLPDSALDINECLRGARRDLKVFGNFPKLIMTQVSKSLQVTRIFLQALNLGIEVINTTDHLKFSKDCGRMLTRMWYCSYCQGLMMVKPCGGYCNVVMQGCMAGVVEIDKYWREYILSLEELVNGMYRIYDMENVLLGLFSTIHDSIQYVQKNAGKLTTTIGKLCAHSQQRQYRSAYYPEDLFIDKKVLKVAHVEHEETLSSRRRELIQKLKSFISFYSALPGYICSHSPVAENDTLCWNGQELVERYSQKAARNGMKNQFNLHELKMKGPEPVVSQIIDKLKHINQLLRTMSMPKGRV

B1: mouse Unc5A ectodomain (mUnc5A^ecto, residues 1-359) (domain or fragment)
chain: not shown
B1: binds.
